Measured values reported in patent US20250289894A1 (MORPHIC THERAPEUTIC, published 2025).
Residue numbers refer to the chain shown, from its start. Where two headings read alike, the source gives them in different places. Blank lines part the entries; values can stand above or below the molecule they belong to.

Experiments:
[1] = molecular target: Human α7β1 (human) (UniProt Q13683); assay: cell-based or functional assay
[2] = molecular target: Human α7β1 (human) (UniProt Q13683); assay: cell-based or functional assay; remark: listed apart in the source
[3] = molecular target: T1, Human a7b1 Ecto (X2B) (human, UniProt P05556 21-728); assay: SPR
T1 construct: extracellular domain

[4] = molecular target: T2, Human a7 Genu Calf 1-2 (human, UniProt Q13683 679-1078, limits assumed); assay: SPR
T2 construct: domain: Genu Calf 1-2
T2 sequence (looked up): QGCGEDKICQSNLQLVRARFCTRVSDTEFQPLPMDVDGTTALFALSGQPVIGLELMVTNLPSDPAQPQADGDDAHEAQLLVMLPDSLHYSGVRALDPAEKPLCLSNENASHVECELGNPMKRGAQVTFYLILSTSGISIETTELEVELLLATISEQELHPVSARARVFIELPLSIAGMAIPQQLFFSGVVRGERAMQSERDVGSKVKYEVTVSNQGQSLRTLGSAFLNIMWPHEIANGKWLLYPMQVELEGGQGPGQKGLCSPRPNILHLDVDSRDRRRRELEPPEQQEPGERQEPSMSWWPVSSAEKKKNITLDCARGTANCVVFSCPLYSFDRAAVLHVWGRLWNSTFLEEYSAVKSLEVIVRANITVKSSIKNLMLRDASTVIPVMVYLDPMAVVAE

[5] = molecular target: T1, Human a7b1 Ecto (X2B); assay: SPR; remark: listed apart in the source
Target sequence in this assay (P05556 21-728): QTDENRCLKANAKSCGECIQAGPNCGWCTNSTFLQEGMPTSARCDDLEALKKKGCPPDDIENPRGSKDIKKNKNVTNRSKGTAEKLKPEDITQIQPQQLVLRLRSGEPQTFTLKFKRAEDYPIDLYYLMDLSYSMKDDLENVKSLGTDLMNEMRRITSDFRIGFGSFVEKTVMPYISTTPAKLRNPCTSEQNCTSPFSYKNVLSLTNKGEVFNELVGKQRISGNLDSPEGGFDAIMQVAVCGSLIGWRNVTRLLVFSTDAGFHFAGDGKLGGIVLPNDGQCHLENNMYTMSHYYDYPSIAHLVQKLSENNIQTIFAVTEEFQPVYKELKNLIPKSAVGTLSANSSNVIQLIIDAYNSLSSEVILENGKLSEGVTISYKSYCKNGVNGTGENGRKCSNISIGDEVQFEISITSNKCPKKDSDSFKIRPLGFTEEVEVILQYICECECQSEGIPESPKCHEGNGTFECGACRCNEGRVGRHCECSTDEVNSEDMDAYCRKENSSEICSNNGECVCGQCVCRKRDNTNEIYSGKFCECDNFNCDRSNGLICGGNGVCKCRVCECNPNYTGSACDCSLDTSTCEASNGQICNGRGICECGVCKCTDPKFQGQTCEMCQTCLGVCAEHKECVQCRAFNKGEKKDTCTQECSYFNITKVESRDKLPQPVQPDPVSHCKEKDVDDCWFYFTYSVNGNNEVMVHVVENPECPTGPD

[6] = molecular target: T2, Human a7 Genu Calf 1-2; assay: SPR; remark: listed apart in the source
[7] = molecular target: Human α7β1 (human), Q13683; assay: cell-based or functional assay

EC50 (nM), ECIS, DMD-1 myoblast cells (control row) [1]: 38.1 nM
EC50 (nM), ECIS, DMD-2 myoblast cells (control row) [1]: 8.7 nM
EC50 (nM), ECIS, Non-DMD myoblast cells (control row) [1]: 8.1 nM
Emax (% of RefAb1), ECIS, DMD-1 myoblast cells (control row) [1]: 59 % of RefAb1
Emax (% of RefAb1), ECIS, DMD-2 myoblast cells (control row) [1]: 39 % of RefAb1
Emax (% of RefAb1), ECIS, Non-DMD myoblast cells (control row) [1]: 35 % of RefAb1
Molecule: Isotype Control (antibody)

EC50 (nM), a7b1 activation assay [1]: 2.07 nM
EC50 (ug/mL), a7b1 activation assay [1]: 0.31 µg/mL
Emax (% TS2/16), a7b1 activation assay [1]: 100 % TS2/16
Emax (F.C.), a7b1 activation assay [1]: 2.34 F.C.
EC50 (nm), a7b1 activation assay [2]: 1.97 nM
EC50 (ug/mL), a7b1 activation assay [2]: 0.3 µg/mL
Emax (F.C.), a7b1 activation assay [2]: 2.09 F.C.
Molecule: TS2/16 antibody

Kd [3]: 2.4 nM
Kd [4]: 0.1 nM
B1: Ab24 (antibody, human IgG1, kappa, L234A L235A)
heavy: EVQLVQSGAEVKKPGSSVKVSCKASGYSFTRYWMHWVRQAPGQGLEWIGKIDPSDSETRLNQEFRDRATLTVDKSTSTAYMELSSLRSEDTAVYYCARGGYFGREWYYDVWGQGTLVTVSSASTKGPSVFPLAPSSKSTSGGTAALGCLVKDYFPEPVTVSWNSGALTSGVHTFPAVLQSSGLYSLSSVVTVPSSSLGTQTYICNVNHKPSNTKVDKKVEPKSCDKTHTCPPCPAPEAAGGPSVFLFPPKPKDTLMISRTPEVTCVVVDVSHEDPEVKFNWYVDGVEVHNAKTKPREEQYNSTYRVVSVLTVLHQDWLNGKEYKCKVSNKALAAPIEKTISKAKGQPREPQVYTLPPSRDELTKNQVSLTCLVKGFYPSDIAVEWESNGQPENNYKTTPPVLDSDGSFFLYSKLTVDKSRWQQGNVFSCSVLHEALHSHYTQKSLSLSPG
light: DIVMTQSPLSLPVTPGEPASISCRSSQSLVHRNGNTYLHWYLQKPGQSPQLLIYEVSNRAAGVPDRFSGSGSGTDFTLKISRVEAEDVGVYFCSQSTHVPWTFGGGTKLEIKRTVAAPSVFIFPPSDEQLKSGTASVVCLLNNFYPREAKVQWKVDNALQSGNSQESVTEQDSKDSTYSLSSTLTLSKADYEKHKVYACEVTHQGLSSPVTKSFNRGEC

Kd [3]: 2.2 nM
Kd [4]: 0.3 nM
B2: Ab26 (antibody, human IgG1, kappa, L234A L235A, V domains shown)
VH: EVQLVQSGAEVKKPGSSVKVSCKASGYSFTRYWMHWVRQAPGQGLEWIGKIDPSDSETRLNQEFRDRATLTVDKSTSTAYMELSSLRSEDTAVYYCARGGYFGEEWYHDVWGQGTLVTVSS
VL: DIVMTQSPLSLPVTPGEPASISCRSSQSLVHRNGNTYLHWYLQKPGQSPQLLIYEVSNRFTGVPDRFSGSGSGTDFTLKISRVEAEDVGVYFCAQSTQLPYTFGGGTKLEIKR

Kd [3]: 3.4 nM
Kd [4]: 0.3 nM
B3: Ab25 (antibody, human IgG1, kappa, L234A L235A)
heavy: B1 heavy with M256Y, S258T, T260E, L432M, S438N
light: B1 light
notes: same variable domains as Ab24

Kd [5]: 7.3 nM
Kd [6]: 1.3 nM
B4: Ab28 (antibody, human IgG1, lambda, L234A L235A)
heavy: EVQLVESGGGLVKPGGSLRLSCAASGFTFSSYTMNWVRQAPGKGLEWVSSISIVGNYIYYADSLKGRFTISRDNAKNSLYLQMNSLRAEDTAVYYCARRKWEHDAFDIWGQGTMVTVSSASTKGPSVFPLAPSSKSTSGGTAALGCLVKDYFPEPVTVSWNSGALTSGVHTFPAVLQSSGLYSLSSVVTVPSSSLGTQTYICNVNHKPSNTKVDKKVEPKSCDKTHTCPPCPAPEAAGGPSVFLFPPKPKDTLMISRTPEVTCVVVDVSHEDPEVKFNWYVDGVEVHNAKTKPREEQYNSTYRVVSVLTVLHQDWLNGKEYKCKVSNKALAAPIEKTISKAKGQPREPQVYTLPPSRDELTKNQVSLTCLVKGFYPSDIAVEWESNGQPENNYKTTPPVLDSDGSFFLYSKLTVDKSRWQQGNVFSCSVLHEALHSHYTQKSLSLSPG
light: SSELTQDPAVSVALGQTVRITCQGDSLRSYYASWYQQKPGQAPVLVIYGKNNRPSGIPDRFSGSSSGNTASLTITGAQAEDEADFYCTSRDNSGNHVVFGGGTKLTVLGQPKAAPSVTLFPPSSEELQANKATLVCLISDFYPGAVTVAWKADSSPVKAGVETTTPSKQSNNKYAASSYLSLTPEQWKSHKSYSCQVTHEGSTVEKTVAPTECS

Kd [5]: 8.9 nM
Kd [6]: 3.6 nM
B5: Ab29 (antibody, human IgG1, lambda, L234A L235A)
heavy: B4 heavy with M254Y, S256T, T258E, L430M, S436N
light: B4 light

EC50 (nM), a7b1 activation assay [7]: 1.86 nM
EC50 (ug/mL), a7b1 activation assay [7]: 0.28 µg/mL
Emax (% TS2/16), a7b1 activation assay [7]: 97.9 % TS2/16
Emax (F.C.), a7b1 activation assay (9EG7 staining, human iPSC cardiomyocytes) [7]: 2.29 F.C.
B6: Ab24/Ab25 (antibody, V domains shown)
VH: B2 VH with E104R, H108Y
VL: DIVMTQSPLSLPVTPGEPASISCRSSQSLVHRNGNTYLHWYLQKPGQSPQLLIYEVSNRAAGVPDRFSGSGSGTDFTLKISRVEAEDVGVYFCSQSTHVPWTFGGGTKLEIK

EC50 (nm), a7b1 activation assay [7]: 2.88 nM
EC50 (ug/mL), a7b1 activation assay [7]: 0.43 µg/mL
Emax (% TS2/16), a7b1 activation assay [7]: 86.3 % TS2/16
Emax (F.C.), a7b1 activation assay [7]: 1.8 F.C.
B7: Ab26/Ab27 (antibody, V domains shown)
VH: B2 VH
VL: B6 VL with A60F, A61T, S94A, H98Q, V99L, W101Y

Kd [3]: 3.99 nM
Kd [4]: 0.57 nM
B8: Ab30 (antibody, human IgG1, V domains shown)
VH: B2 VH with E105G
VL: B6 VL with N58K, A61S, S94A, T97I, H98Q

Kd [4]: 1.53 nM
B9: Ab32 (antibody, human IgG1, V domains shown)
VH: B2 VH with E105Q
VL: B6 VL with A61S

Kd [3]: 63.7 nM
Kd [4]: 16.4 nM
B10: AB-P (antibody, V domains shown)
VH: B2 VH with E1Q, E105G, H108F
VL: B6 VL with I2V, E55K, A60F, A61S

Kd [4]: 1.33 nM
B11: Ab36 (antibody, human IgG1, V domains shown)
VH: B2 VH with E105K
VL: B6 VL with N58H, A60F, A61P, S94A, H98Q, V99L, W101Y

Kd [4]: 4.44 nM
B12: Ab38 (antibody, human IgG1, V domains shown)
VH: B2 VH with H108N
VL: B6 VL with E55K, A61S

Kd [4]: 2.88 nM
B13: Ab33 (antibody, human IgG1, V domains shown)
VH: B2 VH with E104V, E105G, H108N
VL: B6 VL with A60V, A61P

Kd [4]: 0.94 nM
B14: Ab40 (antibody, human IgG1, V domains shown)
VH: B2 VH
VL: B6 VL with V56G, N58K, A60F, A61S

Kd [4]: 1.35 nM
B15: Ab34 (antibody, human IgG1, V domains shown)
VH: B2 VH with E105T
VL: B6 VL with N58H, A61S

Kd [3]: 3.88 nM
Kd [4]: 0.71 nM
B16: Ab41 (antibody, human IgG1, V domains shown)
VH: B2 VH with E105Q
VL: B6 VL with N58K, A60F, A61S, S94A, T97I, H98Q

Kd [4]: 5.7 nM
B17: Ab42 (antibody, human IgG1, V domains shown)
VH: B2 VH with E104R, E105Q, H108F
VL: B6 VL with V56G, N58K, A60F, A61S, S94A, H98Q, V99L, W101Y

Kd [3]: 4.47 nM
Kd [4]: 0.54 nM
B18: Ab35 (antibody, human IgG1, V domains shown)
VH: B2 VH with E105N
VL: B6 VL with A60Y, A61S, S94A, T97I, H98Q

Kd [4]: 2.53 nM
B19: Ab31 (antibody, human IgG1, V domains shown)
VH: B2 VH with E104R, E105Q, H108F
VL: B6 VL with A61S

Kd [4]: 1.57 nM
B20: Ab39 (antibody, human IgG1, V domains shown)
VH: B2 VH
VL: B6 VL with E55K, A61S

Kd [4]: 1.43 nM
B21: Ab37 (antibody, human IgG1, V domains shown)
VH: B2 VH with E105K
VL: B6 VL with E55G, A60F, S94A, H98Q, V99L, W101Y
